Test results published in patent publication US20240382588A1 (published 2024).

Assays:
Assay in all cases: multimer staining
[1] = target: T1, SmD1 (Smith protein) peptide on HLA-DRA*01:01 / HLA-DRB1*03:01 (human)
T1 peptide: TLLVDVEPKVKSKKR

[2] = target: T2, Ro60 peptide on HLA-DRA*01:01 / HLA-DRB1*03:01 (human)
T2 peptide: KRFLLAVDVSASMNQ

[3] = target: T3, MPO (myeloperoxidase) peptide on HLA-DRA*01:01 / HLA-DRB1*04:05 (human)
T3 peptide: MVQIITYRDYLPLVL

Measured: binding result

B1: Promiscuous self-TCR (TCR, V domains shown)
Valpha: RKEVEQDPGPFNVPEGATVAFNCTYSNSASQSFFWYRQDCRKEPKLLMSVYSSGNEDGRFTAQLNRASQYISLLIRDSKLSDSATYLCVVPPGGGFKTIFGAGTRLFVKA
Vbeta: EAQVTQNPRYLITVTGKKLTVTCSQNMNHEYMSWYRQDPGLGLRQIYYSMNVEVTDKGDVPEGYKVSRKEKRNFPLILESPSPNQTSLYFCASRTRTASYGYTFGSGTRLTVV
recognises: [1] | [2] | [3]
